{
  "source": "the DeepSol protein solubility set",
  "test": "soluble on expression in E. coli; label from the status in PepcDB or PDB records",
  "data": [
    {"sequence": "MQNKIVKIGNIDVANDKPFVLFGGMNVLESRDMAMQVCEAYVKVTEKLGVPYVFKASFDKANRSSIHSYRGPGMEEGLKIFQELKDTFGVKIITDVHEIYQCQPVADVVDIIQLPAFLARQTDLVEAMAKTGAVINVKKPQFLSPSQMGNIVEKIEECGNDKIILCDRGTNFGYDNLIVDMLGFSVMKKASKGSPVIFDVTHSLQCRDPFGAASSGRRAQVTELARSGLAVGIAGLFLEAHPNPNQAKCDGPSALPLSALEGFVSQMKAIDDLVKSFPELDTSIGSHHHHHH", "values": [
      {"measurement": "soluble on expression in E. coli", "result": "soluble"}
    ]},
    {"sequence": "GPGSMCSGLTAFLVDFVQVVPGQTQTSFQTAAPEDSDPGVYDPNTRSWSGTDGLRYRVPLFPIPSERHTREKVRHVKILMDNCRHICISDELPATKEEKRFWASYRFIQYQLFLAPACVVTPPVYVFFKMFHDKLPHFLRGRTMPILTGLAVAEMWAEATYPSHQLLSMALRAKTPMGDAARAEWTRLQPIDIPFYIFSSYQFQQLFYAVPEEYLFGGDLASLCG", "values": [
      {"measurement": "soluble on expression in E. coli", "result": "soluble"}
    ]},
    {"sequence": "MVEKIWFENHPLKYLLWPLLWPLSVLFGAISRSKRQQFQTGRKQAYQAPVPVVVVGNITAGGNGKTPVVVWLVEQLQHLGYKPGVVSRGYGAKAPQYPLVLNDDTPTQHCGDEPKLIHRRTGAPVAVDPVRANAVKALVELDVDIIITDDGLQHYALERDVELVIVDGNRRFGNECLIPLGPLREGVERLQEVDFIITNGGLAHQGEISMSLAPSKAINLKTKQQVDVSELKALVAFAGIGHPPRFFNTLESMHADVKVTKGFADHQDFDQKELEALALQGANVIMTEKDAVKCSDYAQDNWWYLPVSAQLEPKDAERILNRIKEVKATYGSPSAAAALEHHHHHH", "values": [
      {"measurement": "soluble on expression in E. coli", "result": "soluble"}
    ]},
    {"sequence": "MGSDKIHHHHHHMGKLVLAAKVSHVPSLMLSETSDSPLRQARAGAVAALRELGRRAKEREVTTFVVFDTHWLSNFGYHINANAQHRGSFTSHEAPHMIQDLRYDLPGDPALAQAIAAEAQSHGLKVLAHQVPTLGLEYGTIVPMHYLNSDGWAKIVSIASPLFTSIEESRALGEATRRAIDASDERVAILASGSLSHRLWPNKDLGPDAWTTIASEFNRQVDLRVLQLWQERRYREFTAMLPDYAVKCNGEGGMADTVMLFAALGWDDYTGEAEPLCDYFPSSGSGQVNVEFHVS", "values": [
      {"measurement": "soluble on expression in E. coli", "result": "not soluble"}
    ]},
    {"sequence": "MGSDKIHHHHHHMAMTQTENQTAPQQHIRIFDTTLRDGEQSPGVALNHAQKLEIAHTLARMGVDVIEAGFPIASPGDLEGVSRIAREVRGPVITALARANRADIEAAAKGVEAAEKSRIHTFIATSPIHMQKKLNLEPDAVIERAVEAVRLARQYVDDVEFSAEDATRSEWDFLSRIFKAAVEAGATTINVPDTVGYTTPEEMRKLFAYLKAKLPAHVILSSHCHDDLGMAVANSIAAAEGGARQIECTINGIGERAGNASLEEIVMAFHTRRDVYGYETGIRTRELYRASRLVSRLSGMPVQPNKAIVGDNAFAHESGIHQDGVIKARETYEIMNAELVGREAAVLVMGKHSGRAAFRKALTDLGYGDIPDDKVQHLFGRFKDLADRKGQIYAEDLRALVDARSDVPQTFSLEGFQITSGMNMMPVAFVRLHTPDGPVDATAHGDGPVEAAFQAISKITGISPTLESYRIQSVTRGDDALGEVSIHVRHGETQLNGTGVATDIVEASARAWIRVMNMIVAGMGKNKAITQMTP", "values": [
      {"measurement": "soluble on expression in E. coli", "result": "not soluble"}
    ]},
    {"sequence": "MSLKITGLRTRRIHIPFDKPIGTSIHRIEGVSGLLVWLDTDEGITGESYLWAIGRHRVPVLESIVRMLGERAIGKDPRDTTARFDEMWTEINFLGHKGVSLFGIAAIDWACWDILGQSLGASVSRLLGRRRDRVTAYASGGLWASMTIPELEAQARDFVAQGFTAVKMRIGKPDIGEDIERVAAVRSAIGSRIKLMADANQGLSVNHAIRLGRKLETFDLVWFEEPVQAYDLEGSARVAAEIDTPIASGETEYGRYGFRDMLERKSADVLMPDLERVGGVTEWVRVAHMAAAYDVPVSPHIFSEHSLQLCGAISNVNYAEHMPWFAELFQERLEMVDGDLLIPDRPGMGFRFDPDAVERYADEGHHHHHH", "values": [
      {"measurement": "soluble on expression in E. coli", "result": "soluble"}
    ]},
    {"sequence": "GPGSMHPRLSGQGVFPRYGGGWMHQFGHVYALQQELLNAEANNWFRAMELWHTARHEGVAMNVSHYTNILRQCVPPTAWEASLMVLKQMRRENIRPDVVGVGCALAACADANRSEEVEKVFSCFSGKLKLDSICYLALIKAKMSRGGYAEALAVGREQDADGVPFLPHTYTHLLEAAEVADDGEMALELARRMSSEQWPVSDRGREALKKLSTRHHWEEVAEYKQFVAVEDHKLSLPPTLPRG", "values": [
      {"measurement": "soluble on expression in E. coli", "result": "not soluble"}
    ]},
    {"sequence": "MANSMATLSRRLYRSLLSNPRISQASMSFCTNNITSPEDSDFDELESPIEPKASDPVSRFSGEERVMEERPLENGLDSGIFKAILVGQVGQLPLQKKLKSGRTVTLFSVGTGGIRNNRRPLINEDPREYASRSAVQWHRVSVYPERLADLVLKNVEPGTVIYLEGNLETKIFTDPVTGLVRRIREVAIRRNGRVVFLGKAGDMQQPSSAELRGVGYY", "values": [
      {"measurement": "soluble on expression in E. coli", "result": "soluble"}
    ]},
    {"sequence": "MINSPRVCIQVQSVYIEAQSSPDNERYVFAYTVTIRNLGRAPVQLLGRYWLITNGNGRETEVQGEGVVGVQPLIAPGEEYQYTSGAIIETPLGTMQGHYEMIDENGVPFSIDIPVFRLAVPTLIHMGHHHHHHSH", "values": [
      {"measurement": "soluble on expression in E. coli", "result": "not soluble"}
    ]},
    {"sequence": "MFTTYKNINELENAYDEERKQLNDAFNQIDELRHQTRKKCEQMYDHFLYLKHKMNYSEDAMIRMTRIIESFDRETNQRIRHHEMKLEDYKDELRREYLKQSDRIEGDELEHHHHHH", "values": [
      {"measurement": "soluble on expression in E. coli", "result": "not soluble"}
    ]},
    {"sequence": "MSLAADKVVVMLNWYVYGEHAPFYYGKAKGIYAAEGIDLEIQEGRGSAATTQAVAAKTADFGYVDVPTMMRAAIKGAPVVATGVLLQTSPMSAMGFVDKNIRKPEDIKGKTVAITPADSMTQIWPLFLKKTGLKESDFQTVAGDGQTKLNAVINGQADLLLGYVMDQSMKIKDATGKDVYPIKFADYGINMVSSGIIANSDYVKANADLVRRFMSATTKAVEAAEKEPKAAAQSILDANPKGGKIDTLTQGFELTIPLYRTAATKSKRPFQVTEQNMTETVNLLVEYGGLDAKAKDNPKAFYTNDYLPKSGEGHHHHHH", "values": [
      {"measurement": "soluble on expression in E. coli", "result": "soluble"}
    ]},
    {"sequence": "MGSDKIHHHHHHMKVLEGIRVLDFGRFIAGPFCAALLADFGADVIRIDRVGGSEDRFVAPVTSEGEGAFFLQVNRNKRSITLDLDSEEGQAVVRKLLLNTDVVVANMPPRTIAALGLDYESLRKVKPDIILTASSAFGADPAVRDRVGFDGVGQAMSGAVHLTGLPDHPMKSMVPVVDFSTALCCALGTMMALYERKSSGQGQEVGASLLHTALTLSSGSLIEEALRGLNRQATVNRSPTYGPSDIFRVKDGWIIAQVIGPAMFKRWTRMVGRPELLDDPRFADDAMRGEHGEVLSDIMSDWCAGRTREEALAILEGARIPGGPVNTPRQALEDEVVRASGAFHGVDYPGAAAQVPLVATPVSLSRTAPAIARRPPTAGEHTEEVLRDAGYAPGEIVALRERGVI", "values": [
      {"measurement": "soluble on expression in E. coli", "result": "not soluble"}
    ]},
    {"sequence": "MTAAPGTSMATPHVAGIAALLLQAHPSWTPDKVKTALIETADIVKPDEIADIAYGAGRVNAYKAINYDNYAKLVFTGYVANKGSQTHQFVISGASFVTATLYWDNANSDLDLYLYDPNGNQVDYSYTAYYGFEKVGYYNPTDGTWTIKVVSYSGSANYQVDVVSDGSLSQPGSSPSPQPEPTVDAKTFQGSVHLEHHHHHH", "values": [
      {"measurement": "soluble on expression in E. coli", "result": "not soluble"}
    ]},
    {"sequence": "MGIFETMSQVRRLPQALAAAVATPPALAGSGTLRGLIGLDDSLGEAVTTRAEALTIPAVLRARNLLSTTVARTPLVCDGTLPPFVPVAAPPGAATMQTPFHRMLATADDLLFNGVACWALDRDESGTCIGAIHIPLDTWQIEENTVRVNGKAVDPMEVCIFVGIHGGLLTHASETFTDARNLVRAAARVAQNPAALIELRQTNNAQLSPDDVDRIINGYVAARRGRNSGVGFSSSGLEVHEHEMAKENLLIEGRNAAAVDVARAMNVPAAFIDATVGGTSLSYQNAASRMIELVTFGVEPLMSAIEARLNQPDMHADHLANPLKFDPAALLDAIPTTPTIGAQPHGENS", "values": [
      {"measurement": "soluble on expression in E. coli", "result": "not soluble"}
    ]},
    {"sequence": "MVLFSEDHIQETRRRGRIEVICGSMFSGKTEELIRRMKRAKFARQRVEIFKPAIDTRYSEEDVVSHDSHSIASTPIDSSASILLFTSEIDVVGIDEAQFFDDGLIDVCRQLANNGIRVIIAGLDMDFKGNPFGPMPQLCAIADEVSKVHAICVKCGDLASFSHRTVKNDKQVLLGETAEYEPLCRECYLRARGEDGQKI", "values": [
      {"measurement": "soluble on expression in E. coli", "result": "not soluble"}
    ]},
    {"sequence": "MKVLFAKTFVKDLKHVPGHIRKRIKLIIEECQNSNSLNDLKLDIKKIKGYHNYYRIRVGNYSIGIEVNGDTIIFRRVLHRKSIYDYFP", "values": [
      {"measurement": "soluble on expression in E. coli", "result": "soluble"}
    ]}
  ]
}
